In publication PMC13355314 (2026):

Legend:
BRD4 BD1 BD1 = BRD4 BD1 BD1 (Homo sapiens, UniProt O60885, ZZ1-SO2H)
[1] = target: biotinylated YPEL5–WDR26^ΔCTLH complex (AviTag on WDR26^ΔCTLH) (UniProt Q9H7D7 1-661; P62699 1-121, biotin on the C-terminal AviTag (BirA)); assay: BLI

Kd (BRD4 BD1 BD1) [nM]	Kd [1] [nM]	Binder
~12		YPEL5 (protein) MGRIFLDHIGGTRLFSCANCDTILTNRSELISTRFTGATGRAFLFNKVVNLQYSEVQDRVMLTGRHMVRDVSCKNCNSKLGWIYEFATEDSQRYKEGRVILERALVRESEGFEEHVPSDNS
	16.4	BD1 domain of BRD2 (domain or fragment) not shown
	23.2	BD1 domain of BRD3 (domain or fragment) not shown
